Measurements taken from patent US20040266686A1 (Regeneron, published 2004).
Each block holds one binder with its values, some of them ahead of it.

What was measured:
human VEGF165 [1] = molecular target: T1, human VEGF165 (human, UniProt P15692-4 27-191); experiment: size exclusion chromatography (Superose 6), complex purified, dissociated in 6M guanidine hydrochloride, components quantified
T1 construct: also called Human recombinant VEGF165
Method: (b) Size Exclusion Chromatography. […] The receptor-ligand complex was then incubated in a buffer containing 6M guanidine hydrochloride in order to dissociate it into its component proteins.

human VEGF165 [2] = molecular target: T1, human VEGF165; experiment: size exclusion chromatography under dissociative conditions (6M GuHCl), standard curves
Method: (a) Size Exclusion Chromatography (SEC) under native conditions. […] The sample was eluted with the same buffer at flow rate 40 μl/min. at room temperature. […] Fractions eluted between 1.1 and 1.2 ml were combined and guanidinium hydrochloride (GuHCl) was added to a final concentration 4.5M to dissociate the complex.
(b) Size Exclusion Chromatography (SEC) under dissociative conditions. To separate the components of the receptor-ligand complex and to determine their molar ratio, 50 μl of dissociated complex as described supra was loaded onto a Superose 12 PC 3.2/30 equilibrated in 6M GuHCl and eluted with the same solution at a flow rate 40 μl/min. at room temperature.
The stoichiometry of the receptor-ligand complex was determined from the peak area or the peak height of the components. […] To obtain a standard curve, four different concentrations (0.04 mg/ml−0.3 mg/ml) of either component were injected onto a Pharmacia Superose 12 PC 3.2/30 column equilibrated in 6M guanidinium chloride and eluted with the same solution at flow rate 40 μl/min. at room temperature. The standard curve was obtained by plotting peak area or peak height vs protein concentration.

human VEGF165 [3] = molecular target: T1, human VEGF165; experiment: cell-based or functional assay
human VEGF165 [4] = molecular target: T1, human VEGF165; experiment: size exclusion chromatography with on-line light scattering
Method: (a) Size Exclusion Chromatography (SEC) with On-Line Light Scattering. Size exclusion chromatography column with a MiniDawn on-line light scattering detector (Wyatt Technology, Santa Barbara, Calif.) and refractive index (R1) detectors (Shimadzu, Kyoto, Japan) was used to determine the molecular weight (MW) of the receptor-ligand complex. Samples were injected onto a Superose 12 HR 10/30 column (Pharmacia) equilibrated in PBS buffer and eluted with the same buffer at flow rate 0.5 ml/min. at room temperature. […] MW was calculated from LS and R1 signals. The same procedure was used to determine MW of the individual components of the receptor-ligand complex.

T1 sequence (P15692 other isoform, or with tags, fused parts or gaps limits assumed): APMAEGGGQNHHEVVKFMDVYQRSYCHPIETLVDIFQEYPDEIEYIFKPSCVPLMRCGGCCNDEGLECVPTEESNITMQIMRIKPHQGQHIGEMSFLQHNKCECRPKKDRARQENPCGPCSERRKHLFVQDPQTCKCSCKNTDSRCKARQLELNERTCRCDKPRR

ratio of VEGF165 to receptor in the complex (human VEGF165 [1]): 1 VEGF165:receptor
molar ratio of VEGF165:receptor (from the peak area) (human VEGF165 [2]): 1.16 mol/mol
molar ratio of VEGF165:receptor (from the peak height) (human VEGF165 [2]): 1.1 mol/mol
half maximal dose, VEGF165-induced cell proliferation (MG87 cells, MTS) (human VEGF165 [3]): 0.8 nM
stoichiometry of the complex (human VEGF165 [4]): 1 receptor:VEGF165
B1: Flt1D2.Flk1D3.Fc?C1(a) (Fc fusion, human)
chain: GRPFVEMYSEIPEIIHMTEGRELVIPCRVTSPNITVTLKKFPLDTLIPDGKRIIWDSRKGFIISNATYKEIGLLTCEATVNGHLYKTNYLTHRQTNTIIDVVLSPSHGIELSVGEKLVLNCTARTELNVGIDFNWEYPSSKHQHKKLVNRDLKTQSGSEMKKFLSTLTIDGVTRSDQGLYTCAASSGLMTKKNSTFVRVHEKGPG
modifications: N-linked glycosylation: complete at Asn33, Asn193, Asn282; partial at Asn65 and Asn120 (peptide mapping numbering)
notes: domain: Ig domain 2;domain: Ig domain 3; Made in CHO cells, transiently or stably; also called R1R2; not shown: Fc?C1(a) portion

half maximal dose, VEGF165-induced cell proliferation (MG87 cells, MTS) (human VEGF165 [3]): 2 nM
B2: Flt1D2.VEGFR3D3.Fc?C1(a) (Fc fusion, not shown: a dimerising Fc or GST)
chain: GRPFVEMYSEIPEIIHMTEGRELVIPCRVTSPNITVTLKKFPLDTLIPDGKRIIWDSRKGFIISNATYKEIGLLTCEATVNGHLYKTNYLTHRQTNTIIDIQLLPRKSLELLVGEKLVLNCTVWAEFNSGVTFDWDYPGKQAERGKWVPERRSQQTHTELSSILTIHNVSQHDLGSYVCKANNGIQRFRESTEVIVHENGPG

half maximal dose, VEGF165-induced cell proliferation (MG87 cells, MTS) (human VEGF165 [3]): 2 nM
B3: Flt1(1-3)-Fc (Fc fusion, human, UniProt P17948 27-331, looked up, not shown: a dimerising Fc or GST)
chain: SKLKDPELSLKGTQHIMQAGQTLHLQCRGEAAHKWSLPEMVSKESERLSITKSACGRNGKQFCSTLTLNTAQANHTGFYSCKYLAVPTSKKKETESAIYIFISDTGRPFVEMYSEIPEIIHMTEGRELVIPCRVTSPNITVTLKKFPLDTLIPDGKRIIWDSRKGFIISNATYKEIGLLTCEATVNGHLYKTNYLTHRQTNTIIDVQISTPRPVKLLRGHTLVLNCTATTPLNTRVQMTWSYPDEKNKRASVRRRIDQSNSHANIFYSVLTIDKMQNKDKGLYTCRVRSGPSFKSVNTSVHIYDK
